Reference: the DeepSol protein solubility set

Test: soluble on expression in E. coli; label from the status in PepcDB or PDB records

Soluble on expression in E. coli, not soluble:
MPVDRGAVRDAAKYLRGVRPLDPAALREYVPGQPHEAVVRQVLREQAADLGIIERADGTFVVPPEEPVGPPFNGVSALPERYERVVEAELTAAYGPDWHRGDTGDSLRETIRRFKDDYYRRNPVEYDREVALGYAVYHLAGYYAAVQYVLAGLARDGLLGHDLRVLDLGAGVGGPAVGLFDFLPDEALVEYHAVEPSAAADVLDALLAETPRNVHTTIHRETAESFQPAGEYDLVLACSVLSELDDAASVLRKYADAMAADGTALALAPADKHTSTHLRAVERAVEDDPFTVYGPTPRLWPDRRPTDSGWSFDERPAVEVPAVQSRLADASQDPGEFRHTDVRFSYSLLRRDDRRRHAVELSGDRLLALGDADDRVTDRADLLVAKLSRNLAGADANPVFRVSDGSQTTDCYAVLVRPTSLNGGIEAADYGDLVSIEDALVLWNDDEDAYNLVVDEETVVDAV
MGSDKIHHHHHHVSVDDLIDTTSLELLVAPAPLADFLRQSSAMHRHLCPRQVLGARMGMYAGELLGLTLPQKNKRLYTFVETDGCFADGVSVTTGCWLGRRTMRLMDEGKVAATFVDTQTGQAFRIAPRPNVRDLARQYAPNARSRWHAYLIAYQLMPLTDLLIAQPITLTVDLKAIISRNGLRTTCDHCGEEIINAREVIRDGQTLCRTCGGEGYYTITG
MSLSQHIRKLDSDVSERLKSQACTVSLASAVREIVQNSVDAHATTIDVMIDLPNLSFAVYDDGIGLTRSDLNILATQNYTSKIRKMNDLVTMKTYGYRGDALYSISNVSNLFVCSKKKDYNSAWMRKFPSKSVMLSENTILPIDPFWKICPWSRTKSGTVVIVEDMLYNLPVRRRILKEEPPFKTFNTIKADMLQILVMHPMISLNVQYTDKLRINTEVLFRSKNITEGLTKHQQMSQVLRNVFGAIIPPDMLKKVSLKFNEYQIEGIISKMPVGLKDLQFIYINGRRYADSAFQGYVDSLFQAQDFGEKGMSLLKTKSVGKPYRSHPVFILDVRCPQTIDDLLQDPAKKIVKPSHIRTIEPLIVKTIRSFLTFQGYLTEGHHHHHH
MGSDKIHHHHHHADPFASITHLVDSAMVNKTDSIDREKTSDEPKPIEADESFDDFIYNFASDDALQRQRVVFPLPYYNGERASKIDRKYWKHDDLFAKQSYYTLLFDREEDMDLVGDTSLTSVQVEWIFVKKRMVKKYYFERIKGAWMLEAINLRPIEENENEDFVEFFGHFATDSIFQSRRIRQPLVFVTTDPDDDFSILETTLDLNQWFAFKPALPADKLSNINYGQQNDDNASHKILALKGIGNGFSNILYFQRKDSGWELYKFEDTSI
MAAISFLGDLIQTISDRGRDLIGLARSDLARTASAADLARFCEDLISRRGEASGVALARLILDRYAAFPLEDRLAFLELIATEFGADHDAVDAAIAAYRADPTRARLGLLHVAAEPRSQELIRRLNLARGGTLALVRMREDLFTLRKRLKDREAAPETIDATVSLDSDFEHLFASWFNRGFLVLRPIDWSTPADILEKIIRYEAVHEIADWDELRRRIQPTDRRCFAFFHPALLDEPLIFVEVALTNAIAPAIQPILADGREPVPARSATTAIFYSISNCQKGLAGVTFGNFLIKQVVEDLAREIPSLKTFVTLSPVPGFRTWLDRERGAGAPQGLTREDVEALRLLDTEDWRSDKTKCEAVRRAMLPAAAAYFLRAKNEKGRPLDPVARFHLGNGARLERMNFLGDTSKKGLKQSYGLMVNYLYDLSAIEKNHETYVNLGTVATSSAVSRELRSNLPPPRAVVLAEAGLEHHHHHH
MLNMPAEFEQFHWMVDMVQNVDMGLVVIDRDYNVQVWNGFMTHHSGLQSHEAIGRSIFDIFPEIPPEWFKLKTKPVYDLGCRSFITWRQRPYLFRCRNVRPVTQQAEFMYQNVTLNPMRTPTGKINSLFLSIQDATAEALMSQ
MGSDKIHHHHHHMKLDPKLAQDIVNKMMTQIPYNVNMMDDQGYIIASGDPQRLNTLHVGAVAAINQQTTLPMHDSYGDHGQPGVNMPIVFNDQIIGVIGITGDPEKVTPLASLLRVATELLLDQNQHNLQEKQYETTLNRFLYHWSQVTQQIDTNTNLLLEAQQLGIDILKPRAAIVLPKQTLPIGLLDATDFQFDLDTTTLIVLTALPATIARFTTYCQTGQHRLGIGLFDRNVGNSVRQARQTLRISQIFQRPDFIHYSQIAFIQALLDGHLHVTDLQQRFQKLASTANGRELIKTLGMFVRLNTNVLQTAAALHIHRNTLSYRLDRLQQIFQLDPHQTLDLFTLYVGYLYFKADK
MPSPTVTSPQVAVNDIGSSEDFLAAIDKTIKYFNDGDIVEGTIVKVDRDEVLLDIGYKTEGVIPARELSIKHDVDPNEVVSVGDEVEALVLTKEDKEGRLILSKKRAQYERAWGTIEALKEKDEAVKGTVIEVVKGGLILDIGLRGFLPASLVEMRRVRDLQPYIGKEIEAKIIELDKNRNNVVLSRRAWLEQTQSEVRSEFLNNLQKGTIRKGVVSSIVNFGAFVDLGGVDGLVHVSELSWKHIDHPSEVVQVGDEVTVEVLDVDMDRERVSLSLKATQEDPWRHFARTHAIGQIVPGKVTKLVPFGAFVRVEEGIEGLVHISELAERHVEVPDQVVAVGDDAMVKVIDIDLERRRISLSLKQANEDYTEEFDPAKYGMADSYDEQGNYIFPEGFDAETNEWLEGFEKQRAEWEARYAEAERRHKMHTAQMEKFAAAETAGRGADDQSSASSAPSEKTAGGSLASDAQLAALREKLAGSALEHHHHHH
MLNSKPVSYQVLKFILKHLDPSLRIQLCLVCPSIHTLEKSTPSYIHYLKITDNSVTVNRVTCQITVTDRKVDYQFDINQFPSISGTVELRNSRNNLTKTMKYLLDKLFKGRTVKVGQLAISCENPLRVPLAARINVNVLEVFDSRSLSAASSLIANSCLPLSLIKLPFKSLLKTNNNPITSIVNRKTKKWHFKAPTTAPHNLRRVLTFLQNRRVTTAHFERGHFCFSIVIEYFMGDSDIENGTYYTFDTTRGAVFVVMERSRKRYKAMLEDGSSRRSNQLTIKKNSTSKLVISKIQQGDAWILGFKIERRRLFPTFF
FMQEPEAIETALHRLSDHDLIVIQVLDPTEKVLPLQGNSKLVDLETGEEIRTYISDNFKERYTRKLDDHSARIKKTCMKVGAEFYTFTTDTPVFNAFYNTIRRRRR
GPGSMYRLFSCCKTNELKRLFSHALDASIKNEGVAQQRKRQVLPRRHRKLHKLTIREENEEGLRDFLPPKPVVPAGWKLEHVKGSNRFDLRKSVEIRDCGKEHLHAVAMMEVKEYEGTYRMDNGEREEEEYLFFTLFVQKNRFPGALEFGLTSIDMELVMDSLAIHNNREELEDAYGALSVSTSRNGTSNRIIEKSNLSCRSCRDNRYRGPMLSELDDDFSDEILDYLDERGVNNGFAEYMMAQAHFFEQEEYINWIRLLRQFAQ

Soluble on expression in E. coli, soluble:
SNADPKEGVQYEVLSTSLENDGMAPVTEVFALSCGHCRNMENFLPVISQEAGTDIGKMHITFNQSAHIASMFYYAAEMQVDGAPDHAFMEDLFAATQMGEGTTLTEQQEAYSKAFTSRGLVSPYDFNEEQRDTLIKKVDNAKMLSEKSGISSVPTFVVNGKYNVLIGGHDDPKQIADTIRYLLEK
MDVTALCHKIFLHIHGLISADRYSLFLVCEDSSKDKFLISRLFDVAEGSTLEEASNNCIRLEWNKGIVGHVAAFGEPLNIKDAYEDPRFNAEVDQITGYKTQSILCMPIKNHREEVVGVAQAINKKSGNGGTFTEKDEKDFAEYLAFCGEVLHNAQLYETSLLENKRNLEHHHHHH
MSLVKTRILIISDTHGSKPKPKSDNSPSTEDELNQEDVTKVITGWRDPLPEADVVIHCGDLTKRTTIPEFEQTFSVLRSIKAPLKLAIAGNHDTALDEEHWVNKYGGSKETIDKVKKIVREAETDGVKYLPEGVHEFTLANGALLKVYASPWTPAYGGWAFQYKNGHDFNIPPGMDVAVTHGPPRGILDFAGRAGTHAGCPQLLAAVARAKPKIHCFGHIHEAWGMHHVTWDGDEIDLARSQYRGLKGLRPNRVTQGKETARMTREKLIEMSKQRAVRLDLTQGINRSIAGKQTLFVNAAIMSIRYRPVQLPWIIDVDLKAREGHHHHHH
SLKSGCSARQVCAGNTHFAVVTVEKELYTWVNMQGGTKLHGQLGHGDKASYRQPKHVEKLQGKAIHQVSCGDDFTVCVTDEGQLYAFGSDYYGCMGVDKVAGPEVLEPMQLNFFLSNPVEQVSCGDNHVVVLTRNKEVYSWGCGEYGRLGLDSEEDYYTPQKVDVPKALIIVAVQCGCDGTFLLTQSGKVLACGLNEFNKLGLNQCMSGIINHEAYHEVPYTTSFTLAKQLSFYKIRTIAPGKTHTAAIDERGRLLTFGCNKCGQLGVGNYKKRLGINLLGGPLGGKQVIRVSCGDEFTIAATDDNHIFAWGNGGNGRLAMTPTERPHGSDICTSWPRPIFGSLHHVPDLSCRGWHTILIVEKVLNSKTIRSNSSGLSIGTVFQSSS
SLWQPQTGDIIFQISRSSQSKAIQLATHSDYSHTGMLVMRNKKPYVFEAVGPVKYTPLKQWIAHGEKGKYVVRRVEGGLSVEQQQKLAQTAKRYLGKPYDFSFSWSDDRQYCSEVVWKVYQNALGMRVGEQQKLKEFDLSNPLVQAKLKERYGKNIPLEETVVSPQAVFDAPQLTTVAKEWPLFSW
MAGDPMGSGESKANTAETPEVLDVKLTGPEKVNPGESAAYEAAVSYGDEAVTDADEVEFEVWKEGEKDASQMFKVKQEKGVYRLETTFKEDGVYTVQSHVTAKKQHSMPTLKVQVGDADAASNQSEEEHSHHHLEHHHHHH
MSTSHDRAVLNQILNPLMPTSDSGIAEIHLESDSLEHPGYELSLQLEREGVALAEGVRLDEAIEKFTKALEVCPKNPSAYNNRAQAYRLQNKPEKALDDLNEALSLAGPKTKTACQAYVQRASIYRLRGDDDKARTDFASAAELGSSFAKMQLVALNPYAAMCNKMLAEVFEKAKTGED
DVQLVESGGGSVQAGGSLRLSCAASGSTDSIEYMTWFRQAPGKAREGVAALYTHTGNTYYTDSVKGRFTISQDKAKNMAYLRMDSVKSEDTAIYTCGATRKYVPVRFALDQSSYDYWGQGTQVTVSSRGRHHHHHH
MTELKNDRYLRALLRQPVDVTPVWMMRQAGRYLPEYKATRAQAGDFMSLCKNAELACEVTLQPLRRYPLDAAILFSDILTVPDAMGLGLYFEAGEGPRFTSPVTCKADVDKLPIPDPEDELGYVMNAVRTIRHELKGEVPLIGFSGSPWTLATYMVEGGSSKAFTVIKKMMYADPQALHALLDKLAKSVTLYLNAQIKAGAQAVMIFDTWGGVLTGRDYQQFSLYYMHKIVDGLLRENDGRRVPVTLFTKGGGQWLEAMAETGCDALGLDWTTDIADARRRVGNKVALQGNMDPSMLYAPPARIEEEVATILAGFGHGEGHVFNLGHGIHQDVPPEHAGVFVEAVHRLSEQYHR
TCSQPNNFPAEIPLYKQSFKNWAGDIKVDDVWTCAPRSADEVVKVANWAKDNGYKVRARGMMHNWSPLTLAAGVSCPAVVLLDTTRYLTAMSIDASGPVAKVTAQAGITMEALLTGLEKAGLGVTAAPAPGDLTLGGVLAINGHGTAIPAKGERRLAGASYGSISNLVLSLTAVVYDKASGAYALRKFARNDPQIAPLLAHVGRSLIVEATLQAAPNQRLRCQSWFNIPYGEMFAAAGSGGRTFASYLDSAGRVEAIWFPFTSNPWLKVWTVTPNKPLFSRQTDKPFNYPFSDNLPDEVTDLANKILSLGDGKLTPAFGKAQFAAASAGLVATASWDLWGWSKNLLLYVKPTTLRVTANGYAVLTRRENVQRVLNEFVTFYQARVQAYQQQGRYPMNGPVEIRVTGLDDPSEAALSGGVAPALSAIRPRPDHPEWNVAVWLDILTLPGTPYANQFYREIEQWIEANFNGSYAAVRPEWSKGWGYTDQAAWADSAMLQTTIPNAFRAGQPAAANWDAAKAALAAYDPYRLFSSPLLDSLGL
